Test results taken from IntAct's records for PubMed 26900326.

B1: Molecular chaperone MKKS (Homo sapiens), Q9NPJ1 (parent)
chain: MSRLEAKKPSLCKSEPLTTERVRTTLSVLKRIVTSCYGPSGRLKQLHNGFGGYVCTTSQSSALLSHLLVTHPILKILTASIQNHVSSFSDCGLFTAILCCNLIENVQRLGLTPTTVIRLNKHLLSLCISYLKSETCGCRIPVDFSSTQILLCLVRSILTSKPACMLTRKETEHVSALILRAFLLTIPENAEGHIILGKSLIVPLKGQRVIDSTVLPGILIEMSEVQLMRLLPIKKSTALKVALFCTTLSGDTSDTGEGTVVVSYGVSLENAVLDQLLNLGRQLISDHVDLVLCQKVIHPSLKQFLNMHRIIAIDRIGVTLMEPLTKMTGTQPIGSLGSICPNSYGSVKDVCTAKFGSKHFFHLIPNEATICSLLLCNRNDTAWDELKLTCQTALHVLQLTLKEPWALLGGGCTETHLAAYIRHKTHNDPESILKDDECTQTELQLIAEAFCSALESVVGSLEHDGGEILTDMKYGHLWSVQADSPCVANWPDLLSQCGCGLYNSQEELNWSFLRSTRRPFVPQSCLPHEAVGSASNLTLDCLTAKLSGLQVAVETANLILDLSYVIEDKN
partner: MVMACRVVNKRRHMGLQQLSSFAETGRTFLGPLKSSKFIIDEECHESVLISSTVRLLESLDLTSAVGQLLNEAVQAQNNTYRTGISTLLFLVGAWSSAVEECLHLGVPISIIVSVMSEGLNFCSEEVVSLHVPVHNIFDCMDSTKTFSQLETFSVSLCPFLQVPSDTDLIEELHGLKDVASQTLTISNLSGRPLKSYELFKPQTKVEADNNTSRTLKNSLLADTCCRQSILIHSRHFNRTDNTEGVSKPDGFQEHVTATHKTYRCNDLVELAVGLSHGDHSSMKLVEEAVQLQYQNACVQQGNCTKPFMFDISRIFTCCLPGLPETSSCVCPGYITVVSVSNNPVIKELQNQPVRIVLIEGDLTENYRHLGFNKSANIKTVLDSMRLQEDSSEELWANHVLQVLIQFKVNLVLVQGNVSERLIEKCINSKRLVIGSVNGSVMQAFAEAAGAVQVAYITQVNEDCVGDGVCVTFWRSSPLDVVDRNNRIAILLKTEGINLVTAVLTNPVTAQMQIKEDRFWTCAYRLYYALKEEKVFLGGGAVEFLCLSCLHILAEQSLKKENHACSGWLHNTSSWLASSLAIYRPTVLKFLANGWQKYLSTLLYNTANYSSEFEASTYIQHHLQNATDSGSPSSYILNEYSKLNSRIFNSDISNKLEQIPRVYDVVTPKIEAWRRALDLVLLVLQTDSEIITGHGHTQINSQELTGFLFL

Variants of: B1
Conditions: with bbs12_human BBS12, Q6ZW61

Variant | effect of a mutation on the interaction
H395R | decreasing interaction strength
L277P | decreasing interaction strength
T57A | disrupting interaction strength
